The target of experiment [1] is αvβ5 integrin on human cells (human) (UniProt P06756). As to the kind of experiment: radiolabeled antibody binding on M21 cells (n = 2).
For experiment [2] the target is unchanged. As to the kind of experiment: cell-based or functional assay.
For experiment [3] the target is unchanged. As to the kind of experiment: radiolabeled antibody binding on HT-29 cells (n = 1).
The target is the same in experiment [4]. Nature of the experiment: radiolabeled antibody binding on A375S2 cells (n = 4).
For experiment [5], the target named is αvβ3 integrin on human cells (human) (UniProt P06756). As to the kind of experiment: cell-based or functional assay.
αvβ3 integrin on human cells (human), sequence (P06756 31-1048, chain 1 of 2): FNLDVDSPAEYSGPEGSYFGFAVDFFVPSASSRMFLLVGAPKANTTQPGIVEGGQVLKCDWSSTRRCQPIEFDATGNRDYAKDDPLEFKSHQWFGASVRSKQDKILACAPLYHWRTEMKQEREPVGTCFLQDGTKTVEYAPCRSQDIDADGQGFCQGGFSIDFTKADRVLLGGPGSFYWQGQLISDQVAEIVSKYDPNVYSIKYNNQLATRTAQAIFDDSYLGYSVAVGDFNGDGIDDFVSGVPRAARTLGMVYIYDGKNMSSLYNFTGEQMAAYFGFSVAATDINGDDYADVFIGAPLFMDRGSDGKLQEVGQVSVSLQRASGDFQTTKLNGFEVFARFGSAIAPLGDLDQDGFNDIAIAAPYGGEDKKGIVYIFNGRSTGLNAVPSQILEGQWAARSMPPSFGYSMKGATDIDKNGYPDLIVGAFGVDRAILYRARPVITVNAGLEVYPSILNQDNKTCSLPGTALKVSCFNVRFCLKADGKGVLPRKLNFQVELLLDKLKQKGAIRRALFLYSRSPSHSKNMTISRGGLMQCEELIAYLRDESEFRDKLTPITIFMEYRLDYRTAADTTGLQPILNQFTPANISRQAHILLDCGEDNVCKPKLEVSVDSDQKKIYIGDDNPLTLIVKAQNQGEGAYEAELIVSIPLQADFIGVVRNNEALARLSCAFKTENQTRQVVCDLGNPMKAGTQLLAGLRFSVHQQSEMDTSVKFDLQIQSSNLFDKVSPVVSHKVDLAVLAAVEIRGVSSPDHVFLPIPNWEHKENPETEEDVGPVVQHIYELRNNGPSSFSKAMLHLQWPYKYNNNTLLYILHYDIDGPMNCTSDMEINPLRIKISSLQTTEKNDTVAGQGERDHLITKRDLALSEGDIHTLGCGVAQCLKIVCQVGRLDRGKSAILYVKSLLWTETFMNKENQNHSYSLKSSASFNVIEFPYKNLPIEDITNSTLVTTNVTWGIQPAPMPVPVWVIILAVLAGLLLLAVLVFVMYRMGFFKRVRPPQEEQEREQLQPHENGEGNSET
αvβ3 integrin on human cells (human), sequence (P05106 27-788, chain 2 of 2, further chain): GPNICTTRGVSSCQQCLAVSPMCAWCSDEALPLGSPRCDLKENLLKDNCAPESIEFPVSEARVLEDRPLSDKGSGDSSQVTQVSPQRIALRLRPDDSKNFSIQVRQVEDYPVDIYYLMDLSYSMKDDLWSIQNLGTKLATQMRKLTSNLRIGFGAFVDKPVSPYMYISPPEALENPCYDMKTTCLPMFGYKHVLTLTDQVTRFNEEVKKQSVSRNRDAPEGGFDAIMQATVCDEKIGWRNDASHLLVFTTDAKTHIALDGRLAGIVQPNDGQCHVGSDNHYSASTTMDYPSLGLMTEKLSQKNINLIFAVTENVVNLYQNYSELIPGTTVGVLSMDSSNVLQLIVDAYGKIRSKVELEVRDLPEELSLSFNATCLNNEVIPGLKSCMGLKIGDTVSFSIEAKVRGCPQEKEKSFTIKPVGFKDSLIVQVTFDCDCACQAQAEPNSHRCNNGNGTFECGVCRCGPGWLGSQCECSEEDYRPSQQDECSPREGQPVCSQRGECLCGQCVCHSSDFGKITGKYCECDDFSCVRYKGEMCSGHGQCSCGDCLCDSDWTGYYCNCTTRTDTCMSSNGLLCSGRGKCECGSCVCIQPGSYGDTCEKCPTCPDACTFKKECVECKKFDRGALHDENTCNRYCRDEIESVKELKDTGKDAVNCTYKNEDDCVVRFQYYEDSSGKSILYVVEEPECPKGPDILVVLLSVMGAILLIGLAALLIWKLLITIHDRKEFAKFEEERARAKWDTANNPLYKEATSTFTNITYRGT
For experiment [6] the target is unchanged. Nature of the experiment: radiolabeled antibody binding on A375S2 cells (n = 2).
The target in experiment [7] is alpha V integrins (αvβ3 and αvβ5) on human cells (human) (UniProt P06756). As to the kind of experiment: flow cytometry on M21 cells; labeled CNTO95 2 µg/mL; competitor m7E3 IgG 20 µg/mL. Further details: % Positive: reference not given here.
Experiment [8] shares this target. As to the kind of experiment: 125-I antibody saturation binding on M21 cells (n = 8).
Experiment [9] shares this target. Nature of the experiment: cell-based or functional assay.
Experiment [10] has the same target. Nature of the experiment: flow cytometry on M21 cells; labeled CNTO95 20 µg/mL; competitor LM609 (anti-αvβ3) 20 µg/mL.
The target is the same in experiment [11]. As to the kind of experiment: flow cytometry on M21 cells; labeled CNTO95 2 µg/mL; competitor VNR139 (anti-αv) 20 µg/mL.
For experiment [12] the target is unchanged. As to the kind of experiment: flow cytometry on M21 cells; labeled CNTO95 2 µg/mL; competitor anti-β3 (Chemicon) 20 µg/mL. (In general: A flow cytometer gives signals particle by particle.)
The target is the same in experiment [13]. Nature of the experiment: 125-I antibody saturation binding on M21 cells (n = 4).
Experiment [14] has the same target. As to the kind of experiment: flow cytometry on M21 cells; labeled CNTO95 2 µg/mL; competitor LM609 (anti-αvβ3) 20 µg/mL. Further details: % Positive: reference not given here.
The target is the same in experiment [15]. Nature of the experiment: flow cytometry on M21 cells; labeled CNTO95 2 µg/mL; competitor anti-β3 (AMAC) 20 µg/mL.
The target is the same in experiment [16]. Nature of the experiment: flow cytometry on M21 cells; labeled CNTO95 20 µg/mL; competitor VNR139 (anti-αv) 20 µg/mL.
Experiment [17] shares this target. As to the kind of experiment: flow cytometry on M21 cells; labeled CNTO95 2 µg/mL; no competitor (saline).
For experiment [18] the target is unchanged. As to the kind of experiment: flow cytometry on M21 cells; labeled CNTO95 2 µg/mL; competitor P1F6 (anti-αvβ5) 20 µg/mL. The arrangement: % Positive: reference not given here.
Experiment [19] shares this target. Nature of the experiment: 125-I antibody saturation binding on A375S2 cells (n = 7).
For experiment [20] the target is unchanged. As to the kind of experiment: 125-I antibody saturation binding on A375S2 cells (n = 5).
The target is the same in experiment [21]. As to the kind of experiment: flow cytometry on M21 cells; labeled CNTO95 20 µg/mL; competitor anti-β3 (Chemicon) 20 µg/mL.
For experiment [22] the target is unchanged. Nature of the experiment: flow cytometry on M21 cells; labeled CNTO95 20 µg/mL; competitor anti-β3 (AMAC) 20 µg/mL.
The target is the same in experiment [23]. As to the kind of experiment: 125-I antibody binding on A375S2 and M21 cells, rounded summary.
For experiment [24] the target is unchanged. As to the kind of experiment: flow cytometry on M21 cells; labeled CNTO95 20 µg/mL; competitor m7E3 IgG 20 µg/mL.
For experiment [25] the target is unchanged. Nature of the experiment: flow cytometry on M21 cells; labeled CNTO95 20 µg/mL; competitor P1F6 (anti-αvβ5) 20 µg/mL.
Experiment [26] has the same target. Nature of the experiment: flow cytometry on M21 cells; labeled CNTO95 20 µg/mL; no competitor (saline).

αvβ5 integrin on human cells (human), sequence (P06756 31-1048, chain 1 of 2): as the sequence (P06756 31-1048, chain 1 of 2) above
αvβ5 integrin on human cells (human), sequence (P18084 24-799, chain 2 of 2, further chain): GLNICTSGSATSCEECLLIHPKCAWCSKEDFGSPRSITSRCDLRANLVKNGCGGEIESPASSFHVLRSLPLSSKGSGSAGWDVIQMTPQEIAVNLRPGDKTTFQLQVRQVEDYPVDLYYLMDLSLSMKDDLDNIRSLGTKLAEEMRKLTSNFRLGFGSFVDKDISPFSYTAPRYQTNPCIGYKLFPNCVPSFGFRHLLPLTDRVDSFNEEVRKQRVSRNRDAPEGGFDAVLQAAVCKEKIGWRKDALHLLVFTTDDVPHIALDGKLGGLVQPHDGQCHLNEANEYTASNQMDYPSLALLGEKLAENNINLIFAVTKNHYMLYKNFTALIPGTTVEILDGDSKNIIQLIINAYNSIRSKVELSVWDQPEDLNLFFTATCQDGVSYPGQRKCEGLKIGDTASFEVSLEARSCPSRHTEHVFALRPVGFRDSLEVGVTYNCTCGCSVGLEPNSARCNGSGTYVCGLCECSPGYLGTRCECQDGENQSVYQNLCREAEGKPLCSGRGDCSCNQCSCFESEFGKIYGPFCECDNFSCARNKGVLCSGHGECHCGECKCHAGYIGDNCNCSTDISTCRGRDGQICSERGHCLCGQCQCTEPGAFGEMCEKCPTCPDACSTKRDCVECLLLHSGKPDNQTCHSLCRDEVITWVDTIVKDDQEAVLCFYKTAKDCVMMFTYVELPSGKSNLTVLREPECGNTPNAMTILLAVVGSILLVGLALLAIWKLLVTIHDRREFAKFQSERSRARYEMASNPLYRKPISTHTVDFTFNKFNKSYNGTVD

For the substance P1F6 (murine anti-human αvβ5 antibody), the Receptors per cell (receptors/cell) in [1] worked out at 44000. In [2], this substance showed an A375S.2 cell adhesion to fibrin, % of no-antibody control (10 µg/ml) of 92.9%; an A375S.2 cell adhesion to fibrinogen, % of no-antibody control (10 µg/ml) of 99.4%; an A375S.2 cell adhesion to fibronectin, % of no-antibody control (10 µg/ml) of 101%; an A375S.2 cell adhesion to gelatin, % of no-antibody control (10 µg/ml) of 87.4%. In experiment [2], this substance returned an A375S.2 cell adhesion to type I collagen, % of no-antibody control (10 µg/ml) of 101%; an A375S.2 cell adhesion to vitronectin, % of no-antibody control (10 µg/ml) of 28.5%; an HUVEC adhesion to fibrin, % of no-antibody control (10 µg/ml) of 96.7%; an HUVEC adhesion to fibrinogen, % of no-antibody control (10 µg/ml) of 94.5%. In addition, in [2], the HUVEC adhesion to fibronectin, % of no-antibody control (10 µg/ml) was determined as 103%; the HUVEC adhesion to gelatin, % of no-antibody control (10 µg/ml) came to 94.4%; the HUVEC adhesion to type I collagen, % of no-antibody control (10 µg/ml) is 116%; the HUVEC adhesion to vitronectin, % of no-antibody control (10 µg/ml) was found to be 39.8%. Also, the Receptors per cell (receptors/cell) in experiment [3] came to 73000. Also, in experiment [4], the Receptors per cell (receptors/cell) was found to be 70000.

In [5], “LM609 (murine anti-human αvβ3 antibody, Chemicon)” came in with an A375S.2 cell adhesion to fibrin, % of no-antibody control (10 µg/ml) of 50%; an A375S.2 cell adhesion to fibrinogen, % of no-antibody control (10 µg/ml) of 14%; an A375S.2 cell adhesion to fibronectin, % of no-antibody control (10 µg/ml) of 104%; an A375S.2 cell adhesion to gelatin, % of no-antibody control (10 µg/ml) of 25.2%. Also, in [5], the A375S.2 cell adhesion to type I collagen, % of no-antibody control (10 µg/ml) worked out at 100%; the A375S.2 cell adhesion to vitronectin, % of no-antibody control (10 µg/ml) was 42.1%; the HUVEC adhesion to fibrin, % of no-antibody control (10 µg/ml) amounted to 48.1%; the HUVEC adhesion to fibrinogen, % of no-antibody control (10 µg/ml) was found to be 14.3%. In experiment [5], this substance registered an HUVEC adhesion to fibronectin, % of no-antibody control (10 µg/ml) of 103%; an HUVEC adhesion to gelatin, % of no-antibody control (10 µg/ml) of 36.5%; an HUVEC adhesion to type I collagen, % of no-antibody control (10 µg/ml) of 109%; an HUVEC adhesion to vitronectin, % of no-antibody control (10 µg/ml) of 26.3%. Also, the Receptors per cell (receptors/cell) in experiment [6] was determined as 300000.

By Kd is commonly meant a measure of binding affinity in units of concentration. Take CNTO 95 (antibody): the % Positive was found to be 132% in [7]; 93% in experiment [10]; 106% in experiment [11]; 125% in experiment [12]; 110% in experiment [14]; 106% in experiment [15]. Besides, the % Positive worked out at 104% in experiment [16]; 100% in experiment [17]; 112% in [18]; 91% in experiment [21]; 91% in experiment [22]; 103% in [24]. For the same substance, the values for the % Positive in [25] and in experiment [26] were 101% and 100%, respectively. For the same substance, the MCF (Median Channel Fluorescence) in [7] was found to be 5.73; in experiment [10] it was 13.3; in [11] it was 4.61; in [12], 5.42; in experiment [14], 4.78; in experiment [15], 4.61. Further, the MCF (Median Channel Fluorescence) in experiment [16] came out at 14.9; in experiment [17], 4.33; in [18], 4.87; in experiment [21], 13.1; in experiment [22] it was 13.1; in experiment [24] it was 14.7. For the same substance, the MCF (Median Channel Fluorescence) in experiment [25] stood at 14.5; in experiment [26], 14.3. For the same substance, the Receptors per cell (receptors/cell) in experiment [8] was 200000; in [19], 120000. The same substance came in with an A375S.2 cell adhesion to fibrin, % of no-antibody control (10 µg/ml) in [9] of 43.3%. In addition, the A375S.2 cell adhesion to fibrinogen, % of no-antibody control (10 µg/ml) in experiment [9] came to 11.4%. For the same substance, the A375S.2 cell adhesion to fibronectin, % of no-antibody control (10 µg/ml) in experiment [9] was 103%. Also, the A375S.2 cell adhesion to gelatin, % of no-antibody control (10 µg/ml) in experiment [9] is 23.2%. Also, in [9], the A375S.2 cell adhesion to type I collagen, % of no-antibody control (10 µg/ml) was found to be 104%. The same substance came in with an A375S.2 cell adhesion to vitronectin, % of no-antibody control (10 µg/ml) in experiment [9] of 1.4%. The same substance gave an HUVEC adhesion to fibrin, % of no-antibody control (10 µg/ml) in experiment [9] of 45.1%. The same substance had an HUVEC adhesion to fibrinogen, % of no-antibody control (10 µg/ml) in experiment [9] of 34.5%. This substance also returned an HUVEC adhesion to fibronectin, % of no-antibody control (10 µg/ml) in [9] of 102%. The same substance showed an HUVEC adhesion to gelatin, % of no-antibody control (10 µg/ml) in experiment [9] of 54.8%. In addition, in experiment [9], the HUVEC adhesion to type I collagen, % of no-antibody control (10 µg/ml) worked out at 97.7%. Besides, the HUVEC adhesion to vitronectin, % of no-antibody control (10 µg/ml) in experiment [9] was found to be 3.3%. The Kd stood at 8.5 nM in experiment [13], 5.2 nM in experiment [20] and 7 nM in experiment [23].

In experiment [9], Human IgG (negative control) (antibody) yielded an A375S.2 cell adhesion to fibrin, % of no-antibody control (10 µg/ml) of 99.5%; an A375S.2 cell adhesion to fibrinogen, % of no-antibody control (10 µg/ml) of 102%; an A375S.2 cell adhesion to fibronectin, % of no-antibody control (10 µg/ml) of 100%; an A375S.2 cell adhesion to gelatin, % of no-antibody control (10 µg/ml) of 94.6%. Moreover, in [9], the A375S.2 cell adhesion to type I collagen, % of no-antibody control (10 µg/ml) is 99.1%; the A375S.2 cell adhesion to vitronectin, % of no-antibody control (10 µg/ml) is 104%; the HUVEC adhesion to fibrin, % of no-antibody control (10 µg/ml) is 99.7%; the HUVEC adhesion to fibrinogen, % of no-antibody control (10 µg/ml) turned out to be 108%. In experiment [9], the HUVEC adhesion to fibronectin, % of no-antibody control (10 µg/ml) turned out to be 96.8%; the HUVEC adhesion to gelatin, % of no-antibody control (10 µg/ml) was 109%; the HUVEC adhesion to type I collagen, % of no-antibody control (10 µg/ml) is 99.3%; the HUVEC adhesion to vitronectin, % of no-antibody control (10 µg/ml) is 96.3%.

The values are drawn from US20040185507A1.
